According to paper PMC2172684 (The Journal of Cell Biology, 2003):
Blank lines part the entries; values can stand above or below the binder they belong to.

What was measured:
Test in all cases: ELISA
[1] = biological target: T1, GST-tagged Nup153 (895–1475) ( (mammalian), UniProt P49790 895-1475)
T1 sequence (looked up): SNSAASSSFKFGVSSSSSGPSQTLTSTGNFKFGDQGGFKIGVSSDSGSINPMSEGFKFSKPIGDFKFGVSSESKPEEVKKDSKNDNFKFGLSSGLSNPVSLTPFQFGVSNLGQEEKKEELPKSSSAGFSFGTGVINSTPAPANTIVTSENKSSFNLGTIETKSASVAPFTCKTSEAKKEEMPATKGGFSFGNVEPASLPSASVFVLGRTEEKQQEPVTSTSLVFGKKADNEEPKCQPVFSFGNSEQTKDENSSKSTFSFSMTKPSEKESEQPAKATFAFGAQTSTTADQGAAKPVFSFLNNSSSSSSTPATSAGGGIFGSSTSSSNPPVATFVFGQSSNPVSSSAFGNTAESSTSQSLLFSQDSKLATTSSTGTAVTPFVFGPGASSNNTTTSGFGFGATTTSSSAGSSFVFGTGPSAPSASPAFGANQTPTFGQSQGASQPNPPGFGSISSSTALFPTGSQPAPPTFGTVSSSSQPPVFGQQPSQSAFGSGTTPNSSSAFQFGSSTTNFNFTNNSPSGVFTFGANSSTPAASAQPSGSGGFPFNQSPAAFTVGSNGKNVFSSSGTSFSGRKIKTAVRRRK

[2] = biological target: importin β E214A (human, UniProt Q14974 1-876, E214A)
[3] = biological target: importin β F217A (human, UniProt Q14974 1-876, F217A)
[4] = biological target: importin β I178A (human, UniProt Q14974 1-876, I178A)
[5] = biological target: wild-type importin β (human, UniProt Q14974 1-876)
[6] = biological target: GST–RanGTP (UniProt P62826 1-216)

Kd [1]: 160 ± 25.3 nM
B2: importin β m-N (1–396) (domain or fragment, human, UniProt Q14974 1-396, looked up)
chain: MELITILEKTVSPDRLELEAAQKFLERAAVENLPTFLVELSRVLANPGNSQVARVAAGLQIKNSLTSKDPDIKAQYQQRWLAIDANARREVKNYVLQTLGTETYRPSSASQCVAGIACAEIPVNQWPELIPQLVANVTNPNSTEHMKESTLEAIGYICQDIDPEQLQDKSNEILTAIAQGMRKEEPSNNVKLAATNALLNSLEFTKANFDKESERHAIMQVVCEATQCPDTRVRVAALQNLVKIMSLYYQYMETAMGPALFARTIEAMKSDIDEVALQGIEFWSNVCDEEMDLAIEASEAAEQGRPPEHTSKFYAKGALQYLVPILTQTLTKQDENDDDDDWNPCKAAGVCLMLLATCCEDDIVPHVLPFIKEHIKNPDWRYRDAAVMAFGCILEG

Kd [6]: 3.9 ± 0.4 nM
B4: importin β I178A/F217A/Y255A/I263R (m-N) (natural protein)
chain: MELITILEKTVSPDRLELEAAQKFLERAAVENLPTFLVELSRVLANPGNSQVARVAAGLQIKNSLTSKDPDIKAQYQQRWLAIDANARREVKNYVLQTLGTETYRPSSASQCVAGIACAEIPVNQWPELIPQLVANVTNPNSTEHMKESTLEAIGYICQDIDPEQLQDKSNEILTAIAQGMRKEEPSNNVKLAATNALLNSLEFTKANFDKESERHAIMQVVCEATQCPDTRVRVAALQNLVKIMSLYYQYMETAMGPALFARTIEAMKSDIDEVALQGIEFWSNVCDEEMDLAIEASEAAEQGRPPEHTSKFYAKGALQYLVPILTQTLTKQDENDDDDDWNPCKAAGVCLMLLATCCEDDIVPHVLPFIKEHIKNPDWRYRDAAVMAFGCILEGPEPSQLKPLVIQAMPTLIELMKDPSVVVRDTAAWTVGRICELLPEAAINDVYLAPLLQCLIEGLSAEPRVASNVCWAFSSLAEAAYEAADVADDQEEPATYCLSSSFELIVQKLLETTDRPDGHQNNLRSSAYESLMEIVKNSAKDCYPAVQKTTLVIMERLQQVLQMESHIQSTSDRIQFNDLQSLLCATLQNVLRKVQHQDALQISDVVMASLLRMFQSTAGSGGVQEDALMAVSTLVEVLGGEFLKYMEAFKPFLGIGLKNYAEYQVCLAAVGLVGDLCRALQSNIIPFCDEVMQLLLENLGNENVHRSVKPQILSVFGDIALAIGGEFKKYLEVVLNTLQQASQAQVDKSDYDMVDYLNELRESCLEAYTGIVQGLKGDQENVHPDVMLVQPRVEFILSFIDHIAGDEDHTDGVVACAAGLIGDLCTAFGKDVLKLVEARPMIHELLTEGRRSKTNKAKTLATWATKELRKLKNQA

More lines, now with the values behind:

B1: importin β (1–396) (domain or fragment, human, UniProt Q14974 1-396, looked up)
chain: MELITILEKTVSPDRLELEAAQKFLERAAVENLPTFLVELSRVLANPGNSQVARVAAGLQIKNSLTSKDPDIKAQYQQRWLAIDANARREVKNYVLQTLGTETYRPSSASQCVAGIACAEIPVNQWPELIPQLVANVTNPNSTEHMKESTLEAIGYICQDIDPEQLQDKSNEILTAIIQGMRKEEPSNNVKLAATNALLNSLEFTKANFDKESERHFIMQVVCEATQCPDTRVRVAALQNLVKIMSLYYQYMETYMGPALFAITIEAMKSDIDEVALQGIEFWSNVCDEEMDLAIEASEAAEQGRPPEHTSKFYAKGALQYLVPILTQTLTKQDENDDDDDWNPCKAAGVCLMLLATCCEDDIVPHVLPFIKEHIKNPDWRYRDAAVMAFGCILEG
Kd [1]: 1.2 ± 0.1 nM

B3: GST-tagged full-length Nup62 (natural protein, UniProt P17955 1-525, looked up)
chain: MSGFNFGGTGAPAGGFTFGTAKTATTTPATGFSFSASGTGTGGFNFGTPSQPAATTPSTSLFSLATQTSTTQTPGFNFGTTPASGGTGFSLGISTPKLSLSSTAATPATANTGSFGLGSSTLTNAISGASTSSQGTAPTGFVFGSSTTSAPSTGTTGFSFTSGSASQPGASGFNIGSVGSLAQPTALSGSPFTPATLATTTAGATQPAAATPTAATTSAGSTLFASIAAAPASSSTTVLSLSAPATTAATPTAGTLGFSLKAPGAAPGASTTSTTTTTTTTTTTASTSSSTTTTGFALSLKPLVPAGPSSVAATALPASSTAVGTTTGPAMTYAQLESLINKWSLELEDQERHFLQQATQVNAWDRTLIENGEKITSLHREVEKVKLDQKRLDQELDFILSQQKELEDLLSPLEESVKEQSGTIYLQHADEEREKTYKLAENIDAQLKRMAQDLKDIIEHLNMAGGPADTSDPLQQICKILNAHMDSLQWVDQSSALLQRRVEEASRVCESRRKEQERSLRIAFD
Kd [2]: 770 ± 123 nM | Kd [3]: 227 ± 33.3 nM | Kd [4]: 89 ± 9 nM | Kd [5]: 77.3 ± 11.6 nM

B5: importin β (304–876) (domain or fragment, human, UniProt Q14974 304-876, looked up)
chain: GRPPEHTSKFYAKGALQYLVPILTQTLTKQDENDDDDDWNPCKAAGVCLMLLATCCEDDIVPHVLPFIKEHIKNPDWRYRDAAVMAFGCILEGPEPSQLKPLVIQAMPTLIELMKDPSVVVRDTAAWTVGRICELLPEAAINDVYLAPLLQCLIEGLSAEPRVASNVCWAFSSLAEAAYEAADVADDQEEPATYCLSSSFELIVQKLLETTDRPDGHQNNLRSSAYESLMEIVKNSAKDCYPAVQKTTLVIMERLQQVLQMESHIQSTSDRIQFNDLQSLLCATLQNVLRKVQHQDALQISDVVMASLLRMFQSTAGSGGVQEDALMAVSTLVEVLGGEFLKYMEAFKPFLGIGLKNYAEYQVCLAAVGLVGDLCRALQSNIIPFCDEVMQLLLENLGNENVHRSVKPQILSVFGDIALAIGGEFKKYLEVVLNTLQQASQAQVDKSDYDMVDYLNELRESCLEAYTGIVQGLKGDQENVHPDVMLVQPRVEFILSFIDHIAGDEDHTDGVVACAAGLIGDLCTAFGKDVLKLVEARPMIHELLTEGRRSKTNKAKTLATWATKELRKLKNQA
Kd [1]: 152 ± 17.5 nM
